B1: Speckle-type POZ protein (Homo sapiens), O43791 (parent)
chain: MSRVPSPPPPAEMSSGPVAESWCYTQIKVVKFSYMWTINNFSFCREEMGEVIKSSTFSSGANDKLKWCLRVNPKGLDEESKDYLSLYLLLVSCPKSEVRAKFKFSILNAKGEETKAMESQRAYRFVQGKDWGFKKFIRRDFLLDEANGLLPDDKLTLFCEVSVVQDSVNISGQNTMNMVKVPECRLADELGGLWENSRFTDCCLCVAGQEFQAHKAILAARSPVFSAMFEHEMEESKKNRVEINDVEPEVFKEMMCFIYTGKAPNLDKMADDLLAAADKYALERLKVMCEDALCSNLSVENAAEILILADLHSADQLKTQAVDFINYHASDVLETSGWKSMVVSHPHLVAEAYRSLASAQCPFLGPPRKRLKQS
partner: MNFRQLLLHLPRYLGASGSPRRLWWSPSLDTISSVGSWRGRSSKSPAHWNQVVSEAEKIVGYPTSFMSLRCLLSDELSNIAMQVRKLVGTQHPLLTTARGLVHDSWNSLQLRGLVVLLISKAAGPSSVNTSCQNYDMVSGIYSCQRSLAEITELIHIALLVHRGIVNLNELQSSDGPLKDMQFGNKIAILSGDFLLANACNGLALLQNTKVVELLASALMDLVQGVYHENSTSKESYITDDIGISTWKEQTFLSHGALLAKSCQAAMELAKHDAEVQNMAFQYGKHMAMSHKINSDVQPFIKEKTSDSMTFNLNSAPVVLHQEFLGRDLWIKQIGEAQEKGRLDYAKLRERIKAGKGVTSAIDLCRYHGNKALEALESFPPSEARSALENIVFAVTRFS
B2: Speckle-type POZ protein (Homo sapiens), O43791 (parent)
chain: B1 chain
partner: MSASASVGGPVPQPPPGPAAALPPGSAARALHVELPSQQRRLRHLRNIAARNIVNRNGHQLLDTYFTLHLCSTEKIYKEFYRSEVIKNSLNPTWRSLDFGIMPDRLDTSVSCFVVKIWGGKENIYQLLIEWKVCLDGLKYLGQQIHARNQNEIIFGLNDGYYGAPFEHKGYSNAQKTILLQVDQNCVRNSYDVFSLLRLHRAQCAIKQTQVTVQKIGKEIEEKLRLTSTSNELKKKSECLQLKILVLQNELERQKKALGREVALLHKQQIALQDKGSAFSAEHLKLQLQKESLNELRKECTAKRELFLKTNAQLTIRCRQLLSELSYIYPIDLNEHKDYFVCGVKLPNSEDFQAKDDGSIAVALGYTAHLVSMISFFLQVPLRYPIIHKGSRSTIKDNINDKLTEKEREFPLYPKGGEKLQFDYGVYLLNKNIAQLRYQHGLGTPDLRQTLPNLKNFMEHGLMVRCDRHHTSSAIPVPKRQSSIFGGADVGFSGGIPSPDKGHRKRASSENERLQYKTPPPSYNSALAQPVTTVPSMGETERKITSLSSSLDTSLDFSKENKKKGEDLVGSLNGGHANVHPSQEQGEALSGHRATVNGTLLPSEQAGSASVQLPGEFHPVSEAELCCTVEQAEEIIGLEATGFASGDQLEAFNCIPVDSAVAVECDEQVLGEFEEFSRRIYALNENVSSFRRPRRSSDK
B3: Speckle-type POZ protein (Homo sapiens), O43791 (parent)
chain: B1 chain
partner: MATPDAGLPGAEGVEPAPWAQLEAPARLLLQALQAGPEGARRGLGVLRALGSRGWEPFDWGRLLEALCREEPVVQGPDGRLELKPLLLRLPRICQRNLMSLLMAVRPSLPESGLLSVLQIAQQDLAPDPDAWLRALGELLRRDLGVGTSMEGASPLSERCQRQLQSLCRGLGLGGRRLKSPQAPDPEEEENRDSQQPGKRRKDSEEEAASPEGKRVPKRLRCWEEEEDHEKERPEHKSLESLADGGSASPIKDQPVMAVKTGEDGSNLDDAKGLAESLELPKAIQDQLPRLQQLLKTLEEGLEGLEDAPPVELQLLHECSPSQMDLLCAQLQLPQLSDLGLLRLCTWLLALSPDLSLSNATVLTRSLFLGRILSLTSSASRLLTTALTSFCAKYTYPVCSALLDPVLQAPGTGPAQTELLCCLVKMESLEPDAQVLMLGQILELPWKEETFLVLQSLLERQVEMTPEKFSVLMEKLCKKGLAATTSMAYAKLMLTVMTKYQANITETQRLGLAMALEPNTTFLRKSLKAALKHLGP
B4: Speckle-type POZ protein (Homo sapiens), O43791 (parent)
chain: B1 chain
partner: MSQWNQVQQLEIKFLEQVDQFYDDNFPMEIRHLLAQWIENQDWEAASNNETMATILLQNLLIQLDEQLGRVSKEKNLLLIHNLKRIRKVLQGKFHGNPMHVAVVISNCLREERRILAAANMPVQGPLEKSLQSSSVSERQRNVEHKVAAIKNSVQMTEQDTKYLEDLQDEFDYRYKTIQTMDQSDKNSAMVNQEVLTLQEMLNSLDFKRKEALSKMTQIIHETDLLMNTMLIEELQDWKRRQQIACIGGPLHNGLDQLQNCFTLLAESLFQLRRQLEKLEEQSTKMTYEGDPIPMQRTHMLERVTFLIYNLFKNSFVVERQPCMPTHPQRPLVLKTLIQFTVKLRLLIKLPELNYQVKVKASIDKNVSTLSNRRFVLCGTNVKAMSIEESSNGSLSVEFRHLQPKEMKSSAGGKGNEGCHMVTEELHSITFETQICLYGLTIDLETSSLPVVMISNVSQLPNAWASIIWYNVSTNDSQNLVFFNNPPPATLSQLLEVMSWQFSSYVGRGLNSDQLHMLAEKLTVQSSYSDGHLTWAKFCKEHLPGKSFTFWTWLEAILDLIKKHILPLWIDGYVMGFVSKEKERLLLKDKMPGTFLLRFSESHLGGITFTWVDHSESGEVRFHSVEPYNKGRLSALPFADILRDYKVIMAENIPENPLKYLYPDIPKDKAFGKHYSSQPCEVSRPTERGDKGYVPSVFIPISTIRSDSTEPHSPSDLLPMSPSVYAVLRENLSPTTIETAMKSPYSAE
B5: Speckle-type POZ protein (Homo sapiens), O43791 (parent)
chain: B1 chain
partner: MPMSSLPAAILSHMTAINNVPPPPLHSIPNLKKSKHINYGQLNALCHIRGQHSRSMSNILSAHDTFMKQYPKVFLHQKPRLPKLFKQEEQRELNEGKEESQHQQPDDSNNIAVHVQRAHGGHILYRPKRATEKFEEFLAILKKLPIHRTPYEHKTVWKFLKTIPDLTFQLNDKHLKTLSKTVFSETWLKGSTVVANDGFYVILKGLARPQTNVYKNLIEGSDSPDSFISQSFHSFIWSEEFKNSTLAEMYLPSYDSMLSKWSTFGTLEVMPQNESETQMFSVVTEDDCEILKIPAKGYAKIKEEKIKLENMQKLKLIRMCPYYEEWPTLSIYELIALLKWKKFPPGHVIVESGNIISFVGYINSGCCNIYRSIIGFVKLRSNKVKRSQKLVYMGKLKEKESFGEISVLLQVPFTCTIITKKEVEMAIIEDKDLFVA
B6: Speckle-type POZ protein (Homo sapiens), O43791 (parent)
chain: B1 chain
partner: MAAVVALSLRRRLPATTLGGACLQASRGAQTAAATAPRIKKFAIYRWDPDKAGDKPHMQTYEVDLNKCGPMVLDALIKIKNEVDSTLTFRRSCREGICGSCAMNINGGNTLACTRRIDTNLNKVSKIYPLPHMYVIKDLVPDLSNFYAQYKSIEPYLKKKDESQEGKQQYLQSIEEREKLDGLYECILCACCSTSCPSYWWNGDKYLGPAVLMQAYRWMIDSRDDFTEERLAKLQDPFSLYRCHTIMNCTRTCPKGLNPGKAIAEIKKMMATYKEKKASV

Variants of: B1
Settings: with dlp1_human PDSS2, Q86YH6

| effect of a mutation on the interaction | Variant |
| --- | --- |
| with no effect | F133L |

Variants of: B2
Settings: with uvrag_human UVRAG

| effect of a mutation on the interaction | Variant |
| --- | --- |
| with no effect | F102C |

Variants of: B2
Settings: with uvrag_human UVRAG
Remark: another data set of the same source

| effect of a mutation on the interaction | Variant |
| --- | --- |
| with no effect | F133V |

Variants of: B2
Settings: with uvrag_human UVRAG
Remark: another data set of the same source

| effect of a mutation on the interaction | Variant |
| --- | --- |
| with no effect | F133L |

Variants of: B2
Settings: with uvrag_human UVRAG
Remark: another data set of the same source

| effect of a mutation on the interaction | Variant |
| --- | --- |
| with no effect | Y87C |

Variants of: B3
Settings: with fance_human FANCE

| effect of a mutation on the interaction | Variant |
| --- | --- |
| with no effect | Y87C |

Variants of: B4
Settings: with stat4_human STAT4, Q14765

| effect of a mutation on the interaction | Variant |
| --- | --- |
| with no effect | F133L |

Variants of: B4
Settings: with stat4_human STAT4, Q14765
Remark: another data set of the same source

| effect of a mutation on the interaction | Variant |
| --- | --- |
| with no effect | F133V |

Variants of: B4
Settings: with stat4_human STAT4, Q14765
Remark: another data set of the same source

| effect of a mutation on the interaction | Variant |
| --- | --- |
| with no effect | Y87C |

Variants of: B4
Settings: with stat4_human STAT4, Q14765
Remark: another data set of the same source

| effect of a mutation on the interaction | Variant |
| --- | --- |
| with no effect | F102C |

Variants of: B5
Settings: with cnbd1_human CNBD1, Q8NA66

| effect of a mutation on the interaction | Variant |
| --- | --- |
| with no effect | F133V |

Variants of: B5
Settings: with cnbd1_human CNBD1, Q8NA66
Remark: another data set of the same source

| effect of a mutation on the interaction | Variant |
| --- | --- |
| with no effect | F133L |

Variants of: B5
Settings: with cnbd1_human CNBD1, Q8NA66
Remark: another data set of the same source

| effect of a mutation on the interaction | Variant |
| --- | --- |
| with no effect | Y87C |

Variants of: B6
Settings: with sdhb_human SDHB

| effect of a mutation on the interaction | Variant |
| --- | --- |
| with no effect | F102C |

Variants of: B6
Settings: with sdhb_human SDHB
Remark: another data set of the same source

| effect of a mutation on the interaction | Variant |
| --- | --- |
| with no effect | Y87C |

Variants of: B6
Settings: with sdhb_human SDHB
Remark: another data set of the same source

| effect of a mutation on the interaction | Variant |
| --- | --- |
| with no effect | F133L |

Variants of: B6
Settings: with sdhb_human SDHB
Remark: another data set of the same source

| effect of a mutation on the interaction | Variant |
| --- | --- |
| with no effect | F133V |

Source: IntAct's records for PubMed 35512704
